Assay results taken from patent US20220144960A1 (NANJING LEGEND BIOTECH, published 2022).

B1: AS53574VH7-AS48463VH4bil-bbz CAR (other)
chain: EVQLVESGGGLVQPGGSLRLSCAASGYIYSSNCMGWFRQAPGKGREWVARIHTGSGSTYYADSVKGRFTISQDNSKNTLYLQMNSLRAEDTAVYDCAAGRVVLGAVVCTNEYWGQGTLVTVSSGGGGSGGGGSGGGGSEVQLLESGGGLVQPGGSLRLSCAASGFTFANSDMGWYRQAPGKGCELVSIISSHGGTTYYVDSVKGRFTISRDNSKNTLYLQMNSLRAEDTAVYYCVADPRSNCRGGYCCGYWGQGTLVTVSSTTTPAPRPPTPAPTIASQPLSLRPEACRPAAGGAVHTRGLDFACDIYIWAPLAGTCGVLLLSLVITLYCKRGRKKLLYIFKQPFMRPVQTTQEEDGCSCRFPEEEEGGCELRVKFSRSADAPAYKQGQNQLYNELNLGRREEYDVLDKRRGRDPEMGGKPRRKNPQEGLYNELQKDKMAEAYSEIGMKGERRRGKGHDGLYQGLSTATKDTYDALHMQALPPR
B2: AS53574VH7-AS48542VH5bil-bbz CAR (other)
chain: EVQLVESGGGLVQPGGSLRLSCAASGYIYSSNCMGWFRQAPGKGREWVARIHTGSGSTYYADSVKGRFTISQDNSKNTLYLQMNSLRAEDTAVYDCAAGRVVLGAVVCTNEYWGQGTLVTVSSGGGGSGGGGSGGGGSEVQLVESGGGLVQPGGSLRLSCATSAFTFDGPDMAWYRQAPGKGCELVSIISADGRTYYADSVKGRFTISRDNSKNTVYLQMNSLRAEDTAVYYCALDPRKNCRGGYCCANWGQGTLVTVSSTTTPAPRPPTPAPTIASQPLSLRPEACRPAAGGAVHTRGLDFACDIYIWAPLAGTCGVLLLSLVITLYCKRGRKKLLYIFKQPFMRPVQTTQEEDGCSCRFPEEEEGGCELRVKFSRSADAPAYKQGQNQLYNELNLGRREEYDVLDKRRGRDPEMGGKPRRKNPQEGLYNELQKDKMAEAYSEIGMKGERRRGKGHDGLYQGLSTATKDTYDALHMQALPPR
B3: AS53574VH7-AS47863VH4bil-bbz CAR (other)
chain: EVQLVESGGGLVQPGGSLRLSCAASGYIYSSNCMGWFRQAPGKGREWVARIHTGSGSTYYADSVKGRFTISQDNSKNTLYLQMNSLRAEDTAVYDCAAGRVVLGAVVCTNEYWGQGTLVTVSSGGGGSGGGGSGGGGSEVQLVESGGGLVQPGGSLRLSCAASGSTFGDSDMGWYRQAPGKGCELVSIISSDGRTYYVDSVKGRFTISQDNSKNTLYLQMNSLRAEDTAVYYCAADLRQYCRDGRCCGYWGQGTLVTVSSTTTPAPRPPTPAPTIASQPLSLRPEACRPAAGGAVHTRGLDFACDIYIWAPLAGTCGVLLLSLVITLYCKRGRKKLLYIFKQPFMRPVQTTQEEDGCSCRFPEEEEGGCELRVKFSRSADAPAYKQGQNQLYNELNLGRREEYDVLDKRRGRDPEMGGKPRRKNPQEGLYNELQKDKMAEAYSEIGMKGERRRGKGHDGLYQGLSTATKDTYDALHMQALPPR
B4: AS48463VH4dil-bbz CAR (other)
chain: EVQLLESGGGLVQPGGSLRLSCAASGFTFANSDMGWYRQAPGKGCELVSIISSHGGTTYYVDSVKGRFTISRDNSKNTLYLQMNSLRAEDTAVYYCVADPRSNCRGGYCCGYWGQGTLVTVSSGGGGSGGGGSGGGGSEVQLLESGGGLVQPGGSLRLSCAASGFTFANSDMGWYRQAPGKGCELVSIISSHGGTTYYVDSVKGRFTISRDNSKNTLYLQMNSLRAEDTAVYYCVADPRSNCRGGYCCGYWGQGTLVTVSSTTTPAPRPPTPAPTIASQPLSLRPEACRPAAGGAVHTRGLDFACDIYIWAPLAGTCGVLLLSLVITLYCKRGRKKLLYIFKQPFMRPVQTTQEEDGCSCRFPEEEEGGCELRVKFSRSADAPAYKQGQNQLYNELNLGRREEYDVLDKRRGRDPEMGGKPRRKNPQEGLYNELQKDKMAEAYSEIGMKGERRRGKGHDGLYQGLSTATKDTYDALHMQALPPR
B5: AS47863VH4dil-bbz CAR (other)
chain: EVQLVESGGGLVQPGGSLRLSCAASGSTFGDSDMGWYRQAPGKGCELVSIISSDGRTYYVDSVKGRFTISQDNSKNTLYLQMNSLRAEDTAVYYCAADLRQYCRDGRCCGYWGQGTLVTVSSGGGGSGGGGSGGGGSEVQLVESGGGLVQPGGSLRLSCAASGSTFGDSDMGWYRQAPGKGCELVSIISSDGRTYYVDSVKGRFTISQDNSKNTLYLQMNSLRAEDTAVYYCAADLRQYCRDGRCCGYWGQGTLVTVSSTTTPAPRPPTPAPTIASQPLSLRPEACRPAAGGAVHTRGLDFACDIYIWAPLAGTCGVLLLSLVITLYCKRGRKKLLYIFKQPFMRPVQTTQEEDGCSCRFPEEEEGGCELRVKFSRSADAPAYKQGQNQLYNELNLGRREEYDVLDKRRGRDPEMGGKPRRKNPQEGLYNELQKDKMAEAYSEIGMKGERRRGKGHDGLYQGLSTATKDTYDALHMQALPPR
B6: AS48542VH5dil-bbz CAR (other)
chain: EVQLVESGGGLVQPGGSLRLSCATSAFTFDGPDMAWYRQAPGKGCELVSIISADGRTYYADSVKGRFTISRDNSKNTVYLQMNSLRAEDTAVYYCALDPRKNCRGGYCCANWGQGTLVTVSSGGGGSGGGGSGGGGSEVQLVESGGGLVQPGGSLRLSCATSAFTFDGPDMAWYRQAPGKGCELVSIISADGRTYYADSVKGRFTISRDNSKNTVYLQMNSLRAEDTAVYYCALDPRKNCRGGYCCANWGQGTLVTVSSTTTPAPRPPTPAPTIASQPLSLRPEACRPAAGGAVHTRGLDFACDIYIWAPLAGTCGVLLLSLVITLYCKRGRKKLLYIFKQPFMRPVQTTQEEDGCSCRFPEEEEGGCELRVKFSRSADAPAYKQGQNQLYNELNLGRREEYDVLDKRRGRDPEMGGKPRRKNPQEGLYNELQKDKMAEAYSEIGMKGERRRGKGHDGLYQGLSTATKDTYDALHMQALPPR
B7: AS48481 sdAb (VHH)
VHH: EVQLVASGGGSVQAGETLRLSCTASGFTFADSAMGWYRKGPGNVCDLVAIIRTDGTTYYGDSAKGRFTISRDNAKSTLYLQMNSLKPEDTAVYFCAADRETSFIGGSWCVAKYWDQGTQVTVSS
notes: Camel sdAb

Target: T1, CD30 on CD30-expressing tumor cell lines (HH, MJ, H9) (UniProt P28908 19-595)
T1 sequence (looked up): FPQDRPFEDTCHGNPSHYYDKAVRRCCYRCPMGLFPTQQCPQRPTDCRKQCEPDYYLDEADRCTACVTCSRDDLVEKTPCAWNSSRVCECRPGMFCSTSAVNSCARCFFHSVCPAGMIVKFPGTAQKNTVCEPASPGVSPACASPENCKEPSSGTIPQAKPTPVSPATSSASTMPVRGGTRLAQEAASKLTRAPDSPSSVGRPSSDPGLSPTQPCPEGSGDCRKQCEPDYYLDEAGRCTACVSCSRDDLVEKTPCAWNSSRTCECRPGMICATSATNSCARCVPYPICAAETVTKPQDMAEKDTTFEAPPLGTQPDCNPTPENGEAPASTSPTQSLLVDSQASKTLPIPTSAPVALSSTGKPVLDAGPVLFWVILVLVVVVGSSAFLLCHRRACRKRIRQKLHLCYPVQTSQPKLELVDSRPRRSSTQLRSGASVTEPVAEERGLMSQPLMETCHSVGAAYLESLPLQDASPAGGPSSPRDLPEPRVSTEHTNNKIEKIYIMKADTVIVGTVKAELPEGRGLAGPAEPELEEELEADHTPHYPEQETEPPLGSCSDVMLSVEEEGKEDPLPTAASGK
Experiment: cell-based or functional assay

Compared with B1, B2 is higher in “% H9 cell lysis E:T = 2:1 (LDH assay, CAR T cells)” value: 78% for the first, 84% for the second.

Going from B3 to B4, the “% H9 cell lysis E:T = 2:1 (LDH assay, CAR T cells)” value falls from 72% to 63%.

Going from B5 to B6, the “% H9 cell lysis E:T = 2:1 (LDH assay, CAR T cells)” value rises from 64% to 66%.

First: B1
Second: B2
The “% MJ cell lysis E:T = 1:1 (LDH assay, CAR T cells)” value of the first is lower: 59% for the first, 76% for the second.

Compared with B3, B4 is lower in “% MJ cell lysis E:T = 1:1 (LDH assay, CAR T cells)” value: 56% for the first, 53% for the second.

First: B5
Second: B6
The “% MJ cell lysis E:T = 1:1 (LDH assay, CAR T cells)” value of the first is lower: 50% for the first, 64% for the second.

Target: T2, recombinant human CD30 extra cellular domain (ECD) protein (human, UniProt P28908 19-379)
T2 construct: Bought from R&D systems; also called rhCD30; human CD30 ECD
T2 sequence: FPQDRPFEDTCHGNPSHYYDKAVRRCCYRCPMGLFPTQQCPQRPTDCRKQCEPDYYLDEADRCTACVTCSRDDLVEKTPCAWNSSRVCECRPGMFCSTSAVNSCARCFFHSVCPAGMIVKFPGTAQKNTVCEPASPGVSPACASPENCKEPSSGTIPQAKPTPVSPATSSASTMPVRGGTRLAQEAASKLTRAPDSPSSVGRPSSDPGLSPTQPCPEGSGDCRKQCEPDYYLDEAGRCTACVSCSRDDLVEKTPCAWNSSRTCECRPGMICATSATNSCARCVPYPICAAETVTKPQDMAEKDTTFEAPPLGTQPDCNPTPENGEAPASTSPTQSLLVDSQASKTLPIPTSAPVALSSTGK
Experiment: SPR Biacore T200, His-tagged sdAb/Fab captured, 100.0 nM human CD30 as analyte, single curve
Experimental: Some of these unique binders were subjected to for further characterization by surface plasmon resonance (SPR) on a BIAcore T200 instrument (GE Healthcare). The experiment was carried out as follows. The crude sdAb/Fab proteins were captured through an affinity tag (6×Histidine tag) onto the sensorchip. High-concentration (100.0 nM) of human CD30 (R&D systems, Cat. #6126-CD) flowed over the sensorchip surface, and were allowed to bind the antibody fragments for 300 s followed by injection of the running buffer to allow dissociation of the complex. On-rate ([…] and off-rate (kd) were roughly calculated based on one association and dissociation curve, and were used to estimate the equilibrium dissociation constant (KD). 5F11 scFv (SEQ ID NO:216, prepared according to WO2017066122) was used as a positive control. Data were summarized in Table 3 below. The first 10 antibodies in Table 3 were sdAbs with amino acid sequence ID numbers summarized in Table 1, the last antibody was 5F11 scFv, and the remainings were human Fabs with CDR and scFv amino acid sequence ID numbers in Table 2.

B7 was tested, and the Kd was 95 nM.

B7 gave a koff of 0.0081 s⁻¹.

For B7, the kon was 86000 M⁻¹ s⁻¹.

For B7, the “rhCD30 Binding (RU)” value was 26.3 RU.

Target: T1, CD30 on CD30-expressing tumor cell …
Experiment: cell-based or functional assay
Remark: another data set of the same source

Compared with B1, B2 is lower in “% H9 cell lysis E:T = 0.2:1 (FACS method, CAR T cells)” value: 38.3% for the first, 29.8% for the second.

Going from B3 to B4, the “% H9 cell lysis E:T = 0.2:1 (FACS method, CAR T cells)” value falls from 41.6% to 30.8%.

Going from B5 to B6, the “% H9 cell lysis E:T = 0.2:1 (FACS method, CAR T cells)” value falls from 44.2% to 40.4%.

Going from B1 to B2, the “% MJ cell lysis E:T = 0.2:1 (FACS method, CAR T cells)” value rises from 40.7% to 50.5%.

Compared with B3, B4 is lower in “% MJ cell lysis E:T = 0.2:1 (FACS method, CAR T cells)” value: 71.3% for the first, 26.3% for the second.

Compared with B5, B6 is higher in “% MJ cell lysis E:T = 0.2:1 (FACS method, CAR T cells)” value: 30.4% for the first, 63.4% for the second.

Target: T3, rhesus CD30 ECD (rhesus, UniProt P28908 19-379 (human entry))
T3 construct: Produced in house; also called recombinant rhesus CD30; rhesus CD30 protein
T3 chain: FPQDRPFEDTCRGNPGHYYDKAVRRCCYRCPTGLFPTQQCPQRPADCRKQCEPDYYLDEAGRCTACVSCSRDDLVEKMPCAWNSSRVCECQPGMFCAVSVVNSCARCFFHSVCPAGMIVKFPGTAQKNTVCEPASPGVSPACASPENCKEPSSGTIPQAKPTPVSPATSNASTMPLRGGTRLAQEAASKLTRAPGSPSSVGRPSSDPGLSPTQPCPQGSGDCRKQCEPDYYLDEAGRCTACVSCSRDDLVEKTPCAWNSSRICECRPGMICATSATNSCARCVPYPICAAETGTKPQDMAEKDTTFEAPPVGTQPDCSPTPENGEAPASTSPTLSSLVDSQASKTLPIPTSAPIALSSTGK
Experiment: ELISA on rhesus CD30 ECD protein; member of the group by paragraph 437

B7: binds.
